The values below come from US20260250404A1 (Genmab, published 2026).

Assay [1] deals with T1, recombinant human neonatal Fc receptor FcRn (SinoBiological CT071-H27H-B) (human, UniProt P55899 24-297; P61769 21-119).
T1 construct: Composition of the bought protein is not described
Nature of the assay: SPR at pH 6.0; previous in-house experiments with the same assay set-up; previous in-house experiments, same assay set-up, 12 data points.

Assay [2] addresses T2, recombinant His-tagged human FcγRIIb (human, UniProt P31994 43-217, limits assumed).
T2 sequence (looked up): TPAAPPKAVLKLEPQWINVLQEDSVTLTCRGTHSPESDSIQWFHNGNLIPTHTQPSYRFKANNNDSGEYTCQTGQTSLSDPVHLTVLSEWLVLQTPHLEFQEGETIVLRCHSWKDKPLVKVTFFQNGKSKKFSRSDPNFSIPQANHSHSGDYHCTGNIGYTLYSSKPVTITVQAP
Nature of the assay: SPR (Biacore 8K), His-tagged FcγR captured on anti-His chip, antibody injected, binding response (RU), n=3.

The target in assay [3] is T3, recombinant His-tagged human FcγRIa (Sino Biological 10256-H08S-B) (human, UniProt P12314 16-288). Described as above.
T3 sequence (P12314 16-288 limits assumed, stated change not applied): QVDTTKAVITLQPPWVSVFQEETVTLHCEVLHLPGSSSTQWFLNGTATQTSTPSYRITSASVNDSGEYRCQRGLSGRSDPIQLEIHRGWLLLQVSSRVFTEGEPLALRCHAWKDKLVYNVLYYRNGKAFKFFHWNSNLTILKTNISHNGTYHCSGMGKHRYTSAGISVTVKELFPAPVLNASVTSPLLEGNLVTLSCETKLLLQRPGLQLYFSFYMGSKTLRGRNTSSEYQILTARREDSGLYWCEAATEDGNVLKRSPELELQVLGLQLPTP
The target in assay [4] is T4, recombinant His-tagged human FcγRIIa, 167-His [H] / H131 variant (human, UniProt P12318 34-218, limits assumed).
T4 construct: catalogue numbers differ; also called FcγRIIa-H; FcγRIIa-H131
T4 sequence (looked up): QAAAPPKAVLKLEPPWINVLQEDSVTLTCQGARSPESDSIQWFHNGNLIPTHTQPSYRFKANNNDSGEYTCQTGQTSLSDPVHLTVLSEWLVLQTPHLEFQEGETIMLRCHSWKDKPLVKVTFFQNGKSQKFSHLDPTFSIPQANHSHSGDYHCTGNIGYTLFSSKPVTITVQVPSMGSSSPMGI
The assay is described as above.

The target in assay [5] is T5, recombinant His-tagged human FcγRIIIa, 176-Val [V] / V158 variant (human, UniProt P08637 17-208).
T5 construct: also called FcγRIIIa-V; FcγRIIIa-V158
T5 sequence (P08637 other isoform, or with tags, fused parts or gaps mutant limits assumed): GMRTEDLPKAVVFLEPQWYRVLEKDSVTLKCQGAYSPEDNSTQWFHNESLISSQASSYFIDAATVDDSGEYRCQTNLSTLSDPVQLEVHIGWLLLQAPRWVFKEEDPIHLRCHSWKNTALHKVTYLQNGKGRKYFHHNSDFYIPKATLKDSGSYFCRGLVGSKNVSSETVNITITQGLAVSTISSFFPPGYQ
The assay is described as above.

Assay [6] concerns the target T3, recombinant His-tagged human FcγRIa …. As to the kind of experiment: SPR (Biacore 8K), His-tagged FcγR captured on anti-His chip, antibody injected, relative binding response (RU), n=1.
The target of assay [7] is T6, human FcγRIa on the cell surface (transfected CHO-S cells, M0/M1 macrophages, hMDM, FcγRI effector reporter … (human, UniProt P12314 16-374)).
T6 construct: whole, on cells; also called CD64
T6 sequence (P12314 16-374): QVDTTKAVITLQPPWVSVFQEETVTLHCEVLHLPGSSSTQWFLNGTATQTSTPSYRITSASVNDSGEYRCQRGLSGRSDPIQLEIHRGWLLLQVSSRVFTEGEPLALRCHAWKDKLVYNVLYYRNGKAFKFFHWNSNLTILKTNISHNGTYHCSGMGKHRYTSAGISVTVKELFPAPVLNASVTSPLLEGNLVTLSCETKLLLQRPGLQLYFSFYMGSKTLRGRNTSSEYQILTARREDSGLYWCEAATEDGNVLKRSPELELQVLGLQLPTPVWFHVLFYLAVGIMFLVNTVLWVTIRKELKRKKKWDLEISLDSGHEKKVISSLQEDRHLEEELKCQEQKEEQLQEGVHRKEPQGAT
As to the kind of experiment: flow cytometry on CHO-S cells transiently expressing human FcγRIa, PE goat anti-human IgG F(ab')2, % PE+ cells. Background: In flow cytometry, cells or beads pass a laser one at a time.

Assay [8] has as its target T7, recombinant His-tagged human FcγRIIIa, 176-Phe [F] / F158 variant (human, UniProt P08637 17-208).
T7 construct: also called FcγRIIIa-F; FcγRIIIa-F158
As to the kind of experiment: SPR (Biacore 8K), His-tagged FcγR captured on anti-His chip, antibody injected, binding response (RU), n=3. In general terms: Surface plasmon resonance follows binding to a sensor surface in real time, without labels.

Assay [9] has as its target T8, recombinant His-tagged human FcγRIIa, 167-Arg [R] / R131 variant (human, UniProt P12318 34-218, limits assumed).
T8 construct: catalogue numbers differ; also called FcγRIIa-R; FcγRIIa-R131
T8 sequence (looked up): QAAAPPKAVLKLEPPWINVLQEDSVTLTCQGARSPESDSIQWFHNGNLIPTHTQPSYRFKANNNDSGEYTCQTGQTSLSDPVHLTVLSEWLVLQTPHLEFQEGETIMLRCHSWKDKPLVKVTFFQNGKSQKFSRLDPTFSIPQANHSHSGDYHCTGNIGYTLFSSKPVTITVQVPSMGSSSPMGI
The description is as above.

T7 sequence (P08637 17-208 limits assumed, change not shown): as the sequence (P08637 other isoform, or with tags, fused parts or gaps mutant limits assumed) above, with V160F counted along it

B1: IgG1-ctrl (b12 antigen-binding domains, wild-type human IgG1m(f) Fc) (antibody)
heavy: not shown
light: EIVLTQSPGTLSLSPGERATFSCRSSHSIRSRRVAWYQHKPGQAPRLVIHGVSNRASGISDRFSGSGSGTDFTLTITRVEPEDFALYYCQVYGASSYTFGQGTKLERKRTVAAPSVFIFPPSDEQLKSGTASVVCLLNNFYPREAKVQWKVDNALQSGNSQESVTEQDSKDSTYSLSSTLTLSKADYEKHKVYACEVTHQGLSSPVTKSFNRGEC
Usually Kd stands for the concentration at which binding is half-saturated. The EC50 (read off the curve) is the concentration giving half of the maximal effect. B1: the Kd in [1] amounted to 34 nM. The binding result in assay [2], in [4], in assay [5], in assay [8] and in assay [9] was “binds” throughout. Further, the “EC50 (read off the curve)” value in assay [3] is about 30 nM; in assay [6], about 30 nM; in assay [7] it was about 0.02 µg/mL.
